Experimental data from patent US20250333501A1 (University of California, published 2025).
Changes are numbered by the printed parent chain.

T1: CLDN6 endogenously expressed by human cancer cell lines (ARK2, OVCA429) (human, UniProt P56747 1-220)
T1 construct: Untagged endogenous protein; also called Endogenous CLDN6+
T1 sequence: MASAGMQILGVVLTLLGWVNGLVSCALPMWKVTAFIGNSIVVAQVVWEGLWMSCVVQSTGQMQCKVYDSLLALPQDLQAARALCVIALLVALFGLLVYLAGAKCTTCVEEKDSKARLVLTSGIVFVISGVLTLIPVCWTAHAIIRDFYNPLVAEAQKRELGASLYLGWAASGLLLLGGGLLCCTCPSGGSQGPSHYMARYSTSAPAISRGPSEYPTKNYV

T2: human CLDN6 fused to GFP, expressed on engineered HEK293T cells (HEK293T-CLDN6-mGFP) (human, UniProt P56747 1-220)
T2 construct: It calls residues 1-21 a signal peptide; also called Claudin-6; HEK293T-CLDN6-mGFP Artificial CLDN6+; not shown: mGFP tag
T2 sequence: T1 sequence

B1: AB9-chim (antibody, V domains shown)
VH: EVQLQQSGPELVKPGASVKMSCKASGYRFTDYNMHWVKQSHGKSLEWIGYINPNNGGTNYNQNFKGKATLTVNKSSSTAYMELRSLTSEDSAAYYCARDYLYFFDCWGQGTTLTVSS
VL: DIQMTQSPASQSASLGESVTITCLASQTIGTWLAWYQQKPGKSPQLLIYAAASLADGVPSRFSGSGSGTRFSFKISSLQAEDFVSYYCQQLYSIPRTFGGGTKLEIK
notes: 'chim' is the pre-humanized form (parental variable regions); also called pre-humanized (chimeric) form of AB9
B2: AB9-3 (antibody, V domains shown)
VH: QVQLVQSGAEVKKPGASVKMSCKASGYRFTDYNMHWVRQAPGQGLEWIGYINPNNGGTNYAQKFQGRATLTVDTSTSTAYMELSSLRSEDTAVYYCARDYLYFFDCWGQGTLLTVSS
VL: DIQMTQSPSSLSASVGDRVTITCLASQTIGTWLAWYQQKPGKAPKLLIYAAASLADGVPSRFSGSGSGTDFTFTISSLQPEDFVTYYCQQLYSIPRTFGQGTKLEIK
notes: also called Humanized AB 9-3
B3: AB9-4 (antibody, V domains shown)
VH: B2 VH
VL: B2 VL with L24R
notes: also called Humanized AB 9-4
B4: AB11-chim (antibody, V domains shown)
VH: DVQLVESGGGLVQPRGSRKLSCAASGFTFSSFGMHWVRQAPEKGLEWVAYISSDSRTIYYADTVKGRFTISRDNPTNTLFLQMTSLRSEDTAMYYCARDYGRTYEAYWGQGTLVTVSA
VL: DIVLTQSPASLAVSLGQRATISCRASKSVSTSGYSYIHWYQQKPGQPPKLLIYLASNLESGVPARFSGSGSGTDFTLNIHPVEEEDAATYYCQHSRELPLTFGAGTKLELK
notes: 'chim' is the pre-humanized form (parental variable regions); also called pre-humanized (chimeric) form of AB11
B5: AB11-2 (antibody, V domains shown)
VH: EVQLVESGGGLVQPGGSLRLSCAASGFTFSSFGMHWVRQAPGKGLEWVAYISSDSRTIYYADSVKGRFTISRDNAKNSLYLQMNSLRAEDTAVYYCARDYGRTYEAYWGQGTLVTVSS
VL: DIVMTQSPDSLAVSLGERATINCRASKSVSTSGYSYIHWYQQKPGQPPKLLIYLASNLESGVPDRFSGSGSGTDFTLTISSLQAEDVAVYYCQHSRELPLTFGQGTKLEIK
notes: also called Humanized AB 11-2
B6: AB11-3 (antibody, V domains shown)
VH: B5 VH
VL: B5 VL with M4L, L82V, I110L
notes: also called Humanized AB 11-3
B7: AB4 (antibody, V domains shown)
VH: QVQLQQSGAELARPGASVKMSCKASGYTFTSYTMHWIKQRPGQGQEWIGYINPSSTYTHYIKKFKDKATLTADKSSSTAYMQLRSLTSEDSAVYYCSRGELGGFAYWGQGTLVTVSA
VL: DVVMTQTPLSLPVSLGDQASISCRSSQSLVHSDGNTYLNWYLQKPGQSPKLLIYKVSNRFSGVPDRFSGSGSGTDFTLKIRRVEAEDLGVYFCSQSTHVPYTFGGGTKLEIK
notes: Labelled with Alexa Fluor 647 for FACS and with Texas Red-X in the internalization assay
B8: AB1 (antibody, V domains shown)
VH: QVQLQQSAAELARPGASVKMSCKASGYTFTTYTMHWVKQRPGQGLEWIGFINPSSGYTDYNQKFKDRTTLTADKSSSTVYMQLSSLTSEDSAVYYCANGDYYVAYWGQGTLVTVSA
VL: QIVLTQSPAIMSASLGERVTMTCTASSSVSSTYFHWYQQKPGSSPKLWIYSTSNLASGVPRRFSGSASGTSYSLTISSMEAEDAATYYCHQYHRSPLTFGAGTKLELK
notes: Labelled with Alexa Fluor 647 NHS ester for FACS
B9: AB5 (antibody, V domains shown)
VH: EVQLQQSGPELVKPGASVKMSCKASGYIFTHYIMHWVKQKPGQGLEWIGCINPYNDGTKYNEKFKGKATLTSDKSSSTAYMELSSLTSEDSAVYYCARYYGYPYYSMDYWGQGTSVTVSS
VL: DVLMTQTPLSLPVSLGDQPSISCRSSQSIVHSNGNTYLDWYLQKPGQSPKLLIYKVSNRFSGVPDRFSGSGSGTDFTLKISRVEAEDLGVYYCFQGSHVPFTFGSGTRLEIK
notes: as for B8
B10: AB3 (antibody, V domains shown)
VH: EVKLEESGGGLVQPGGSMKLSCVASGFTFSNYWMNWVRQSPEKGLEWVAQIRLKSDNYATHYAESVKGRFTISRDDSKRSVYLQMNNLRAEDTGTYYCNDGPPSGCWGQGTTLIVSS
VL: DIQMTQSPASLSASVGETVTITCRISENIYSYLAWYQQKQGKSPQLLVYNAKILVEGVPSRFSGSGSGTQFSLKINSLQPEDFGNYYCQHHYTVPWTFGGGTKLEIK
notes: as for B7
B11: AB2 (antibody, V domains shown)
VH: B10 VH with N31D
VL: B10 VL
notes: as for B8
B12: AB19 (antibody, V domains shown)
VH: EVQLQQSGPELVKPGGSMKISCKASGYSFTGYTMNWVKRSHGKNLEWIGLINPYNGVTTYNQNFKGKATLAVDKSSSTAYMELLGLTSEDSAVYYCTRDPLYYGYRDSTMDYWGQGTSVTVSS
VL: NIMMTQSPSSLAVSAGEKVTMSCKSSQSVLFSSNQKNYLAWYQQKPGQSPRLLIYWASTRESGVPDRFTGSGSGTDFTLTISNVQAEDLAVYYCHQYLSSRTFGAGTKLELK
notes: as for B8
B13: AB17 (antibody, V domains shown)
VH: QVQLQQSGAELAKPGASVKMSCKASGYTFTGYWMHWVKQRPGQGLEWLGYINPSTGYTESNQKFKDKATLTADKSSTTAYMQLRSLTPEDSAVYYCAREGITTVLVDYWGQGTTLTVSS
VL: B8 VL with T32S, F34L, R61A, A67G, L97P
notes: as for B8
B14: AB16 (antibody, V domains shown)
VH: EVRLVESGGGLMQPGGSLKLPCAASGFPFSSSAMSWVRQTPEKRLEWVASINSDGNTYYPDSVKGRFTISRDSARNILYLQMSSLRSEDTAMYYCTRNGDYRYDEFAYWGQGTLVTVSA
VL: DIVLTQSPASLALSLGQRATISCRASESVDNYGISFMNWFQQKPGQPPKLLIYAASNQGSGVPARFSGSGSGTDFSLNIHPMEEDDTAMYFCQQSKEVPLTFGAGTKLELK
notes: as for B8

Target: T1, CLDN6 endogenously expressed by human …
Assay: FACS, 0.3 µg Ab, ARK2 cells
Protocol: (§1) FACS assays were also carried out to determine relative antigen binding strengths of the humanized antibodies (at either 1.5 μg or 0.3 μg) for binding to CLDN6 as expressed by the indicated cancer cell lines. 2nd Ab only was used as a negative control.

FACS fluorescence | Binder
3510 | B1
1140 | B2
1120 | B3
1320 | B4
1400 | B5
1320 | B6

Target: T1, CLDN6 endogenously expressed by human …
Assay: FACS, 1.5 µg Ab, ARK2 cells
Protocol: as §1

FACS fluorescence | Binder
4490 | B1
1470 | B2
1550 | B3
1260 | B4
1940 | B5
1540 | B6

Target: T1, CLDN6 endogenously expressed by human …
Assay: FACS, 1.5 µg Ab, OVCA429 cells

FACS fluorescence | Binder
3570 | B1
1260 | B2
1110 | B3
2440 | B4
2690 | B5
2200 | B6

Target: T1, CLDN6 endogenously expressed by human …
Assay: FACS, AF647-labelled mAb, ARK2 cells
Protocol: (§2) Antibodies were purified and cell surface binding of the antibodies to CLDN6 and the antibody IC₅₀ were determined by FACS in which CLDN6 antibodies were directly conjugated with Alexa Fluor® 647 NHS Ester (Succinimidyl Ester), Cat #A20106 (ThermoFisher Scientific) following the manufacturer's protocol. CLDN6 antibodies were tested from 0.32 nM to 1000 nM (serial dilution 1:5, 6 points) in a 50 μl volume with 150,000 cells system.
(§3) CLDN6-expressing cells were used in FACS assays to determine the CLDN6 antibody's ability to bind to CLDN6 on the surface of cells and to cross-react with other CLDN family members. HEK293 T cells engineered to express human CLDN6 fused to GFP, mouse CLDN6 fused to GFP, CLDN9-GFP, CLDN4-GFP, or CLDN3-GFP, or GFP alone (without CLDN6) were used as artificial models of CLDN6 expression. ARK2, OVCA429, LS513 and MCF7 cells were used as endogenous models of CLDN6 expression, as well as models for CLDN3/4 expression.
(§4) For each type of cell tested and for each mAb, cells were detached from the surface of the culture flasks by EDTA (instead of trypsin) in order to protect the cell surface proteins. The detached cells were then incubated with Alexa Fluor®-labeled CLDN6 mAbs for 30 min in the dark on ice at a pre-determined concentration. The CLDN6 mAbs were directly labeled with Alexa Fluor® 647 NHS Ester (Succinimidyl Ester). After washing, the cells were read by a BD Accuri™ Flow Cytometer C6 to detect antibody-antigen protein binding in channel FL4H. Each antibody was tested at varied concentrations to establish a dose-fluorescence curve. The EC50/IC50 of the antibodies (the concentration of the antibody at which half the max value were calculated based on the values of FL4H (gated in viable singlet cells) using the Very Simple IC50 Tool kit available online which allows biological dose-response data to be plotted and fitted to curve types to give the EC50/IC50. The max value was the lowest concentration of the antibody at which fluorescence maxes out. The antibodies were also screened for their ability to cross-react with other CLDN proteins such as CLDN9, CLDN3, and CLDN4. These values were used to determine each antibody's relative affinity among the set of antibodies tested. Cross-reactivity data were obtained using a similar methodology, but with cells having a different expression profile for CLDN6, CLDN3, CLDN4 and CLDN9.

EC50 | Binder
48 nM | B7
105 nM | B8
8 nM | B9
1650 nM | B10
1360 nM | B11

Target: T1, CLDN6 endogenously expressed by human …
Assay: FACS, AF647-labelled mAb, OVCA429 cells
Protocol: as §2, §3, §4

EC50 | Binder
168 nM | B7
84 nM | B8
5 nM | B9
1100 nM | B10
912 nM | B11

Target: T2, human CLDN6 fused to GFP, expressed on …
Assay: FACS, 0.3 µg Ab, 293T clone with human CLDN6
Procedure, shortened: (§5)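 Using a direct-binding flow cytometry method essentially as in the source, humanized antibodies were tested on engineered 293T clones expressing human CLDN6. Labelled antibody (Alexa Fluor 647 NHS ester) was added at 0.3 µg or 1.5 µg to EDTA-detached cells, which were kept on ice in the dark for 30 min, washed and read in channel FL4H of a BD Accuri C6. Fluorescence indicates relative antigen binding strength.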

FACS fluorescence | Binder
46700 | B1
9500 | B2
15300 | B3
1670 | B4
1290 | B5
1010 | B6

Target: T2, human CLDN6 fused to GFP, expressed on …
Assay: FACS, 1.5 µg Ab, 293T clone with human CLDN6
Procedure, shortened: as §5

FACS fluorescence | Binder
72000 | B1
24600 | B2
34300 | B3
3490 | B4
2560 | B5
2360 | B6

Target: T2, human CLDN6 fused to GFP, expressed on …
Assay: FACS, AF647-labelled mAb, HEK293T-CLDN6-mGFP cells
Protocol: as §2, §3, §4

EC50 | Binder
17 nM | B7
≥ 5000 nM | B12
109 nM | B8
2650 nM | B13
10 nM | B9
≥ 5000 nM | B14
604 nM | B10
182 nM | B11
